Data as given in publication PMC4176424, “Thiolation-enhanced substrate recognition by D-alanyl carrier protein ligase DltA from Bacillus cereus” (F1000Research, 2014).

Experiments:
C[C@@H](N)C(=O)O = test: purified protein; conditions: 5 mM ATP, 5 mM CoA, 10 mM MgCl2, 0.1 M KCl, pH 7.2
Excerpt: pyrophosphate release, pyrophosphatase-coupled malachite green assay on BcDltA (D-alanyl carrier protein ligase DltA)

[1] = target: BcDltA (D-alanyl carrier protein ligase DltA) (Bacillus cereus, UniProt Q81G39); test: biochemical
Sequence of BcDltA (D-alanyl carrier protein ligase DltA) (Q81G39 whole entry): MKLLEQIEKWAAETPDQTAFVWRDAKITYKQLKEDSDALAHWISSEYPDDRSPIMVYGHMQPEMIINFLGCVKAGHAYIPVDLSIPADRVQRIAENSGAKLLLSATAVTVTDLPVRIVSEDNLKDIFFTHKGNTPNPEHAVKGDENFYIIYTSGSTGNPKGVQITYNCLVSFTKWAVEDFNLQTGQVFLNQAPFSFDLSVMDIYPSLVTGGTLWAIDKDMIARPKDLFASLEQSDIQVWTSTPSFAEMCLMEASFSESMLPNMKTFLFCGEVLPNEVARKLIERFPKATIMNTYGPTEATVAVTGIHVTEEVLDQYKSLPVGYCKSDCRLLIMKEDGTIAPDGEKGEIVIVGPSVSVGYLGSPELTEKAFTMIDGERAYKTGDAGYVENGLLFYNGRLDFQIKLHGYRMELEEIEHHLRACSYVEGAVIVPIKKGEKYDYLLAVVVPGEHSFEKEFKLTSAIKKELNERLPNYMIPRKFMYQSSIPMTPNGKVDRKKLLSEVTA

Compound | Km (C[C@@H](N)C(=O)O) | kcat (C[C@@H](N)C(=O)O) [s⁻¹] | kcat/Km (C[C@@H](N)C(=O)O) [M⁻¹ s⁻¹] | Kd [1] [µM]
BcDltA (D-alanyl carrier protein ligase DltA) (Bacillus cereus ATCC 14579) | 0.03 ± 0.01 × 10^-3 M | 0.182 ± 0.00333 | 6050 ± 1670 | –
Nc1ncnc2c1ncn2[C@@H]1O[C@H](COP(=O)(O)OP(=O)(O)OP(=O)(O)O)[C@@H](O)[C@H]1O [ATP] | – | – | – | 430
